± gives the uncertainty stated by the source.
Assay: self-splicing fitness, log relative to wild type (ln ratio); higher = more splicing; Tetrahymena group I intron in knt gene, E. coli kanamycin selection, DiMSum; sequences stand for … in CUCUCU…GGAGGGAAAAGUUAUCAGGCAUGCACCUGGUAGCUAGUCUUUAAACCAAUAGAUUGCAUCGGUUUAAAAGGCAAGACCGUCAAAUUGCGGGAAAGGGGUCAACAGCCGUUCAGUACCAAGUCUCAGGGGAAACUUUGAGAUGGCCUUGCAAAGGGUAUGGUAAUAAGCUGACGGACAUGGUCCUAACCACGCAGCCAAGUCCUAAGUCAACAGAUCUUCUGUUGAUAUGGAUGCAGUUCACAGACUAAAUGUCGGUCGGGGAAGAUGUAUUCUUCUCAUAAGAUAUAGUCGGACCUCUCCUUAAUGGGAGCUAGCGGAUGAAGUGAUGCAACACUGGAGCCGCUGGGAACUAAUUUGUAUGCGAAAGUAUAUUGAUUAGUUUUGGAGUACUCGUGGUCG
Outline: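 DiMSum derived fitness as the error-weighted combination of fold changes across replicates, kanamycin versus no kanamycin, normalised to wild type. E. coli BL21(DE3) held the library, which randomised all eight P1ex-region intron nucleotides within the knt kanamycin-resistance gene on pET-22b(+). Six replicate transformations grew overnight at 37°C or 30°C on LB agar with or without 25 μg/mL kanamycin, also containing 100 μg/mL carbenicillin, 50 μM IPTG and 0.2% rhamnose, and pooled colonies were amplicon-sequenced on an Illumina HiSeq 2500.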

| Sequence | self-splicing fitness (ln) (30 °C) | self-splicing fitness (ln) (37 °C) |
| --- | --- | --- |
| ACGAAGCAAUAUUACGUAAG | -2.37 ± 0.1 | -1.05 ± 0.12 |
| ACGAAGCAAUAUUACGUAAU | -2.57 ± 0.087 | -1.23 ± 0.088 |
| ACGAAGCAAUAUUACGUCAA | -3.35 ± 0.17 | -3.51 ± 0.22 |
| ACGAAGCAAUAUUACGUCAG | -3.43 ± 0.19 | -1.1 ± 0.12 |
| ACGAAGCAAUAUUACGUCUU | -2.32 ± 0.17 | -1.91 ± 0.16 |
| ACGAAGCAAUAUUACGUGCC | -1.6 ± 0.079 | -0.89 ± 0.1 |
| ACGCAGCAAUAUUACGAACG | -0.387 ± 0.076 | -0.234 ± 0.091 |
| ACGCAGCAAUAUUACGAAUG | -2.51 ± 0.086 | -1.2 ± 0.097 |
| ACGCAGCAAUAUUACGACAU | -0.318 ± 0.011 | 0.305 ± 0.032 |
| ACGCAGCAAUAUUACGACUA | -1.15 ± 0.072 | -0.183 ± 0.064 |
| ACGCAGCAAUAUUACGAUGA | -1.1 ± 0.064 | -0.521 ± 0.068 |
| ACGCAGCAAUAUUACGCAAA | -2.51 ± 0.13 | -1.77 ± 0.14 |
| ACGCAGCAAUAUUACGCACG | -1.8 ± 0.12 | -1.31 ± 0.12 |
| ACGCAGCAAUAUUACGCCAU | -2.86 ± 0.17 | -2.05 ± 0.17 |
| ACGCAGCAAUAUUACGCCCU | -0.193 ± 0.12 | 0.187 ± 0.12 |
| ACGCAGCAAUAUUACGCGCU | -2.24 ± 0.17 | -1.31 ± 0.14 |
| ACGCAGCAAUAUUACGCUCU | -0.517 ± 0.067 | 0.303 ± 0.076 |
| ACGCAGCAAUAUUACGCUUA | -0.737 ± 0.089 | -0.286 ± 0.099 |
| ACGCAGCAAUAUUACGGAUA | -3.47 ± 0.18 | -1.7 ± 0.12 |
| ACGCAGCAAUAUUACGGCAG | -1.22 ± 0.093 | -1.08 ± 0.15 |
| ACGCAGCAAUAUUACGGCAU | -0.55 ± 0.059 | 0.0845 ± 0.072 |

| Sequence | self-splicing fitness (ln) (30 °C) | self-splicing fitness (ln) (37 °C) |
| --- | --- | --- |
| ACGCAGCAAUAUUACGGUCC | -2.36 ± 0.14 | -1.01 ± 0.13 |
| ACGCAGCAAUAUUACGGUGU | -3.81 ± 0.14 | -2.29 ± 0.096 |
| ACGCAGCAAUAUUACGGUUA | -1.13 ± 0.077 | -1.04 ± 0.062 |
| ACGCAGCAAUAUUACGUAUA | -2.65 ± 0.14 | -2.54 ± 0.13 |
| ACGCAGCAAUAUUACGUUAA | -3.4 ± 0.31 | -2.88 ± 0.24 |
| ACGCAGCAAUAUUACGUUAC | -3.14 ± 0.15 | -3.27 ± 0.23 |
| ACGCAGCAAUAUUACGUUCG | -1.24 ± 0.059 | -0.442 ± 0.068 |
| ACGCAGCAAUAUUACGUUUG | -3.65 ± 0.2 | -2.69 ± 0.2 |
| ACGGAGCAAUAUUACGAACU | -0.565 ± 0.11 | -0.0683 ± 0.16 |
| ACGGAGCAAUAUUACGACAA | – | -1.73 ± 0.45 |
| ACGGAGCAAUAUUACGACAU | -1.947 ± 0.018 | -1.1 ± 0.035 |
| ACGGAGCAAUAUUACGACCG | -2.1 ± 0.17 | -1.78 ± 0.25 |
| ACGGAGCAAUAUUACGAGAU | -3.66 ± 0.21 | 0.0618 ± 0.16 |
| ACGGAGCAAUAUUACGAGGA | -2.89 ± 0.27 | -2.92 ± 0.43 |
| ACGGAGCAAUAUUACGAGGG | -3.45 ± 0.25 | -2.82 ± 0.32 |
| ACGGAGCAAUAUUACGAGGU | -2.12 ± 0.22 | -2.5 ± 0.29 |
| ACGGAGCAAUAUUACGAUGU | -3.19 ± 0.2 | -2.52 ± 0.27 |
| ACGGAGCAAUAUUACGAUUU | -2.33 ± 0.12 | -1.65 ± 0.15 |
| ACGGAGCAAUAUUACGCAGA | -2.52 ± 0.36 | -2.02 ± 0.29 |
| ACGGAGCAAUAUUACGCCAU | -2.63 ± 0.25 | – |
| ACGGAGCAAUAUUACGCCUC | -2.43 ± 0.43 | -1.82 ± 0.27 |

From the supplement of paper PMC7877785
